T1: purified NPR-A-Fc fusion protein (extracellular domain of the receptor NPR-A) (Homo sapiens, UniProt P16066)
T1 construct: Expression construct encoding for the extracellular domain of the receptor NPR-A fused to the DNA encoding for the Fc domain of human immunoglobulin; made in house
T1 sequence (P16066 33-473 limits assumed): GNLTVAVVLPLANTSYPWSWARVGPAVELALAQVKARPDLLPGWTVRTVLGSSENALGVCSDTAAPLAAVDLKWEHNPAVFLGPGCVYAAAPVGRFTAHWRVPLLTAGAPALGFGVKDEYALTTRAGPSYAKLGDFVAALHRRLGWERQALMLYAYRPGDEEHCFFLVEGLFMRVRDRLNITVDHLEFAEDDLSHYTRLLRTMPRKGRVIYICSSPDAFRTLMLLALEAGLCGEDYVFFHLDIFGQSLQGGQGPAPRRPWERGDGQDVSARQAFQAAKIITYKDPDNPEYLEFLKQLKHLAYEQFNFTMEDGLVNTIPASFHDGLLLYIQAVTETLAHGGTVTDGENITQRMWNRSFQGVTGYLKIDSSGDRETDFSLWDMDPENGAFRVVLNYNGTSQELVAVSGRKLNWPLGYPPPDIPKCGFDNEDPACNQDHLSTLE

T2: NPR-A receptor (Homo sapiens, UniProt P16066)
T2 construct: expressed in transfected cells; host or cells: mammalian tissue culture cells (e.g., 3T12 cells)
T2 sequence (P16066 33-1061): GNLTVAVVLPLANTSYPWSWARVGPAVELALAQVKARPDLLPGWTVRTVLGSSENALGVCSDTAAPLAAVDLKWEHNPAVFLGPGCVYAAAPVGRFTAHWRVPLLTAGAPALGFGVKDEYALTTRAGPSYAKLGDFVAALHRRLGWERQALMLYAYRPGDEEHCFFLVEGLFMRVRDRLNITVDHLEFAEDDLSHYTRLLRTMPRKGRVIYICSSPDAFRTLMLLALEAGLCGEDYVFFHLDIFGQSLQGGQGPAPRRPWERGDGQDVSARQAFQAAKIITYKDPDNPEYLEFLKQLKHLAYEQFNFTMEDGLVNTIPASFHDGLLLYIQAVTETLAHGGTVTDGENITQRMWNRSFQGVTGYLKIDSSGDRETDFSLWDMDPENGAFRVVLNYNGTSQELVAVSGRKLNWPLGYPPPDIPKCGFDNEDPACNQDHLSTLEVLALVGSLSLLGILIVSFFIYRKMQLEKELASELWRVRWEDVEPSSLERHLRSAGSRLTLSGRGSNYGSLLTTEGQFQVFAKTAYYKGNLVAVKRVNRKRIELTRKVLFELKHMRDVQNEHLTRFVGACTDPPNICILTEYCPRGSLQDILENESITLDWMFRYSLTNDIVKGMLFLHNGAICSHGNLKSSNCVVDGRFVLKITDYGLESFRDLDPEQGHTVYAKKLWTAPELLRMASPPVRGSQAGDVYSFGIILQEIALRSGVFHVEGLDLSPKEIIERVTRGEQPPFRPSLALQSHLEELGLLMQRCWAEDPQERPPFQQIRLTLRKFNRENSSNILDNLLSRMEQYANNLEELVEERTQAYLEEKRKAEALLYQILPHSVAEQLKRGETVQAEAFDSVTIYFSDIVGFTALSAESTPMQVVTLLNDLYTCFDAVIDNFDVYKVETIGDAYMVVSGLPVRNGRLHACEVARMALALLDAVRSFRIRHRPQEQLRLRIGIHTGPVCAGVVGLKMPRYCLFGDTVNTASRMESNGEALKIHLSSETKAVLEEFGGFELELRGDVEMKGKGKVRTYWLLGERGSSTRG


Columns and labels:
[1] = molecular target: NPR-A-Fc receptor fusion protein (human); assay: SPR (BIAcore), NPR-A-Fc captured by anti-human Fc, analyte injected, 1:1 Langmuir fit
[2] = molecular target: NPR-A receptor expressed on transfected cells; assay: cell-based or functional assay
[3] = molecular target: NPR-A-Fc receptor fusion protein (human); assay: BIAcore surface plasmon resonance; NPR-A-Fc captured by immobilized goat anti-human Fc gamma antibody, analyte injected; 1:1 Langmuir fit
[4] = molecular target: NPR-A-Fc receptor fusion protein (human); assay: SPR (BIAcore), NPR-A-Fc captured by anti-human Fc, analyte injected, 1:1 Langmuir fit; experiment with Uro-Fc
[5] = molecular target: NPR-A-Fc receptor fusion protein (human); assay: SPR (BIAcore), NPR-A-Fc captured by anti-human Fc, analyte injected, 1:1 Langmuir fit; experiment with Fc-Uro
[6] = molecular target: T1, purified NPR-A-Fc fusion protein (extracellular domain of the receptor NPR-A); assay: BIAcore natriuretic peptide receptor (NPR) binding assay; conditions: Fc-Uro vs ularitide comparison (FIG. 2B), n=6, read-out: Binding affinities (KD) on the NPR-A receptor
Method: Kinetics measurements for analytes resulting in estimates of binding affinity constants (KD) were performed using BIAcore 2000 & 3000 instruments and methods recommended by the manufacturer (BIAcore, Sweden). […] Purified NPR-A-Fc receptor fusion proteins were captured by goat anti-human Fcγ (GAHFc) antibodies (Jackson ImmunoResearch, Cat 109-005-098) immobilized onto the sensorchip surface. The unoccupied GAHFc after the capture was shielded from analytes by the injection of human Fc (huFc, Jackson ImmunoResearch, Cat 009-000-008). Analytes were injected to obtain an association phase followed by injection of HBS-P running buffer (10 mM HEPES, 150 mM sodium chloride, 0.005% P-20 surfactant, pH 7.4) to monitor dissociation for each binding cycle.
The binding kinetics of each analyte-receptor pair was calculated from a global analysis of sensorgram data collected from different analyte concentrations using the BIAevaluate program (BIAcore, Sweden). The affinity (KD) resulting from association (ka) and dissociation (kd) of each analyte against each receptor was obtained by simultaneously fitting the association and dissociation phases of the sensorgram from the analyte concentration series using the same 1:1 Langmuir model from the BIAevaluate software (BIAcore, Sweden).

[7] = molecular target: T2, NPR-A receptor; assay: NPR-A receptor activation, intracellular cGMP in transfected cells; type: cell-based; conditions: cells expressing NPR-A; Fc-Uro vs ularitide (FIG. 3B); read-out: EC50 of cGMP induction
Method: NPR-A receptor activation by test compounds was determined by incubation with mammalian cells transfected with expression vector DNA encoding for the NPR-A receptor and measuring the amount of cGMP generated in these cells.
Mammalian tissue culture cells (e.g., 3T12 cells) transfected with expression vector DNA encoding for the NPR-A were cultured in 96-well microtiter plates for 18-20 hours (˜50,000 cells/well) using standard tissue culture conditions. The tissue culture medium was then changed to serum-free medium, cells were pre-incubated with 1 mM IBMX for 30 minutes and treated with various concentrations of test compounds for 10 minutes. Cells were then lysed with 0.2 ml/well of 0.1 M HCl for 20 min, and lysates centrifuged at 1000×g for 2 min. The cGMP in the supernatants was determined using a commercial kit (Direct cGMP EIA Kit, Assay Designs, Inc., Cat#901-014) according to the manufacturer's instructions.

Row | Molecule | Kd [1] [nM] | intracellular cGMP levels, EC50 [2] [nM] | Kd [3] [nM] | Kd [4] [nM] | Kd [5] [nM] | Kd [6] [nM] | EC50 [7] [nM]
1 | Fc-Uro(huFcG1(m1)) fusion protein (from UniProt P01857 104-330) (Fc fusion) | 0.35 | 86 |  |  |  |  | 
2 | Uro-Fc(huFcG1(m1)) fusion protein (Fc fusion) | 7000 | 26.3 | 0.007 |  |  |  | 
3 | ularitide (peptide) |  |  | 0.0031 | 3100 | 0.0042 |  | 
4 | Fc-Uro(huFcG1(m1)): fusion protein: Fc portion of variant human immunoglobulin heavy constant gamma 1 at amino terminus and human urodilatin at carboxy terminus (protein) DKTHTCPPCPAPEAEGAPSVFLFPPKPKDTLMISRTPEVTCVVVDVSHEDPEVKFNWYVDGVEVHNAKTKPREEQYNSTYRVVSVLTVLHQDWLNGKEYKCKVSNKALPAPIEKTISKAKGQPREPQVYTLPPSRQELTKNQVSLTCLVKGFYPSDIAVEWESNGQPENNYKTTPPVLDSDGSFFLYSKLTVDKSRWQQGNVFSCSVMHEALHNHYTQKSLSLSPGKTAPRSLRRSSCFGGRMDRIGAQSGLGCNSFRY |  |  |  |  |  | 0.35 ± 0.1 | 86

— patent US20080181903A1, “CONJUGATE OF NATRIURETIC PEPTIDE AND ANTIBODY CONSTANT REGION” (PDL BioPharma, Inc., priority 2006, published 2008)
